One assay concerns the target SUDV GP ectodomain (Sudan ebolavirus; strain not named for …, UniProt Q66814). Description: ELISA. On the technique in general: An ELISA detects its analyte on a solid surface through an enzyme-linked reagent.
In the next assay the target is rVSV-EBOV GP (wild type) (Zaire ebolavirus (EBOV), UniProt Q05320). Description: ELISA.

B1: ADI-15946 mutant Y100AA (antibody, V domains shown)
VH: EVQLVESGGGLVKPGGSLRLSCAASGFTFSNAWMSWVRQAPGKGLEWVGRIKSKTDGGTIDYAAPVKGRFTISRDDSKNTVYLQMTSLKTEDTAVYYCTTYTEDMRAFDWLLRGGETFDYWGQGTLVTVSS
VL: DIRLTQSPSSLSASVGDRVTITCRASHYISTYLNWYQQKPGKAPKLLIYAASNLQSGVPSRFSGSGFGTDFSLTISSLQPEDFATYHCQQSYSTPGRYTFGQGTKVEIK
For the molecule B1, the binding result with SUDV GP ectodomain is “binds”.

B2: ADI-15946 IgG (antibody, V domains shown)
VH: EVQLVESGGGLVKPGGSLRLSCAASGFTFSNAWMSWVRQAPGKGLEWVGRIKSKTDGGTIDYAAPVKGRFTISRDDSKNTVYLQMTSLKTEDTAVYYCTTYTEDMRYFDWLLRGGETFDYWGQGTLVTVSS
VL: DIRLTQSPSSLSASVGDRVTITCRASHYISTYLNWYQQKPGKAPKLLIYAASNLQSGVPSRFSGSGFGTDFSLTISSLQPEDFATYHCQQSYSTPGRYTFGQGTKVEIK
Consider B2, for which the binding result in the assay with rVSV-EBOV GP (wild type) and with SUDV GP ectodomain was “binds” throughout.

B3: 46M1 (antibody, V domains shown)
VH: EVQLVESGGGLVKPGGSLRLSCAASGFTFSNAWMSWVRQAPGKGLEWVGRIKSKTDGGTIDYAAPVKGRFTISRDDSKNTVYLQMTSLKTEDTAVYYCTTYTEDMAYFDWLLRGGETFDYWGQGTLVTVSS
VL: DIRLTQSPSSLSASVGDRVTITCRASHYISTYLNWYQQKPGKAPKLLIYAASNLQSGVPSRFSGSGFGTDFSLTISSLQPEDFATYHCQQSYSTPGRYTFGQGTKVEIK
As to B3, the binding result with SUDV GP ectodomain was “binds”.
